This is an account of results in PMC12421383, “Autophosphorylation of conserved yeast and human casein kinase 1 isozymes regulates Elongator-dependent tRNA modifications” (Nucleic Acids Research, 2025).

The labels stand for the following.
T1: FL GST-Elp1 (Saccharomyces cerevisiae (budding yeast), UniProt Q06706 1-1349)
T1 construct: Elp1, Elongator subunit of Saccharomyces cerevisiae, full length, expressed from the pETM30 vector; also called Elongator subunit Elp1
T1 sequence (looked up): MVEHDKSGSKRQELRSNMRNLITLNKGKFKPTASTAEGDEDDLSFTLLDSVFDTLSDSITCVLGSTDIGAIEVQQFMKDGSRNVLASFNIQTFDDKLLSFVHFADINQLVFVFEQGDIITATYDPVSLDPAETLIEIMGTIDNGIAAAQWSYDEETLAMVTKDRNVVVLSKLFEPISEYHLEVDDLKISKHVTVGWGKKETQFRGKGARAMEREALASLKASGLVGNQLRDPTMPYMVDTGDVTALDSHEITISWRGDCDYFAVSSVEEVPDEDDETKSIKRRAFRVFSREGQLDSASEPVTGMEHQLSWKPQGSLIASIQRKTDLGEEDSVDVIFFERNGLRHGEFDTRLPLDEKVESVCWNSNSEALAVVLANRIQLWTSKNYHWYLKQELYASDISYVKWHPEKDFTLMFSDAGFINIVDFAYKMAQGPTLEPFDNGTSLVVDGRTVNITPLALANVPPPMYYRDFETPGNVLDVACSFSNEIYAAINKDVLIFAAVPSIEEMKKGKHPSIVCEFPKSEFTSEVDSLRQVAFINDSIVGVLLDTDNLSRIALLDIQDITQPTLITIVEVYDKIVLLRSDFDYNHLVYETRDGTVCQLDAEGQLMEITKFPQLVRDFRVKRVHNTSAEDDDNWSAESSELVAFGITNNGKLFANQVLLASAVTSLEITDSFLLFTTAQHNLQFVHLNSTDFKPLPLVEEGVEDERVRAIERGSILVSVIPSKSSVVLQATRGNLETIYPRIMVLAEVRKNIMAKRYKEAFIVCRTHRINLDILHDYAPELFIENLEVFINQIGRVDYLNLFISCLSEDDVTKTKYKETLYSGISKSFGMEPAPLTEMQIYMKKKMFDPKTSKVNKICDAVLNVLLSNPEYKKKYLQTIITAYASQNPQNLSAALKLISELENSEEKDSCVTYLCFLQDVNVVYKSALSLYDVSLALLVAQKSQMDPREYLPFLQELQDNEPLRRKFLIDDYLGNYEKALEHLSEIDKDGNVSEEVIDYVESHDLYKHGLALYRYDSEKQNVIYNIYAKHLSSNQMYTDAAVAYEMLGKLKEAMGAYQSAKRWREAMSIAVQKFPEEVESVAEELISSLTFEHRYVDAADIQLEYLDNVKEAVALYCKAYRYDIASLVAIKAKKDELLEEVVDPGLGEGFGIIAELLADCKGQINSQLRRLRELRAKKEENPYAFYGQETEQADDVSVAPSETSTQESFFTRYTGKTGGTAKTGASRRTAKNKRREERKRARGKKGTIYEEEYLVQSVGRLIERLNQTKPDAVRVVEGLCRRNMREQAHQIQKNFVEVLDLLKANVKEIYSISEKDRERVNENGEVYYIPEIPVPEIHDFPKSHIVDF

T2: Hrr25 1-394, nonphosphorylated (Saccharomyces cerevisiae (budding yeast), UniProt P29295 1-394)
T2 construct: pETM11 with a TEV cleavage site after the tag; also called P/Q truncation; truncation variant lacking the P/Q-rich region; source: E. coli pRARE cells, purified (NiNTA, gel filtration)
T2 sequence (looked up): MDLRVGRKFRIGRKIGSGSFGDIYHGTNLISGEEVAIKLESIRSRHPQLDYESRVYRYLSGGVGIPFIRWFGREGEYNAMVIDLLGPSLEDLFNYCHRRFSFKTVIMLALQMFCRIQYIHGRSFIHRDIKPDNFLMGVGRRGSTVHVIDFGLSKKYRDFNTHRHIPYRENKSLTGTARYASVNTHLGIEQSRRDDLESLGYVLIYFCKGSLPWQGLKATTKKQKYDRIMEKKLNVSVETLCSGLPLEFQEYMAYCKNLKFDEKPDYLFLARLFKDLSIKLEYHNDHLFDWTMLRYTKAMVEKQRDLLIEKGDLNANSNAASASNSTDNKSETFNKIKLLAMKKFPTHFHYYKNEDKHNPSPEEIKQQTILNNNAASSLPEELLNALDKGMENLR

T3: GST-Elp1 1-734 (Saccharomyces cerevisiae (budding yeast), UniProt Q06706 1-734)
T3 construct: also called truncated form of GST-Elp1
T3 sequence (looked up): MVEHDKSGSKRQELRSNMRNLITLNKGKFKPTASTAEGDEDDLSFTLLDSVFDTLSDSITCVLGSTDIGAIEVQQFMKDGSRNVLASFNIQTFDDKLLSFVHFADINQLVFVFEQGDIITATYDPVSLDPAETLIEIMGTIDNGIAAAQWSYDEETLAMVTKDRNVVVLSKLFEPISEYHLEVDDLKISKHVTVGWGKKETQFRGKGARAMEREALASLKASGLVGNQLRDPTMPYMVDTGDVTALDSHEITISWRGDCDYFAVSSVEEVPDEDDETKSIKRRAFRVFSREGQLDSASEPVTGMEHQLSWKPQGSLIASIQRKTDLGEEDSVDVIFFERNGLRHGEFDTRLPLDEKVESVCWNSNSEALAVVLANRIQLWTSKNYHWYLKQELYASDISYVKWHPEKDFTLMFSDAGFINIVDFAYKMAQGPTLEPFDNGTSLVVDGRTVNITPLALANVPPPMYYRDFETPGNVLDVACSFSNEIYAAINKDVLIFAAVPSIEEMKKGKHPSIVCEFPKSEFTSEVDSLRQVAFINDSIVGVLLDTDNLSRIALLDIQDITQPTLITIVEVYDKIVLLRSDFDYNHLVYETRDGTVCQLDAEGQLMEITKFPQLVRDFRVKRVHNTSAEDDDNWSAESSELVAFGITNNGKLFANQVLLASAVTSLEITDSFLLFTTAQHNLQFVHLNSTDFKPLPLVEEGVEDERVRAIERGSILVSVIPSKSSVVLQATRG

B1: full-length (FL) yeast Hrr25, nonphosphorylated (enzyme, Saccharomyces cerevisiae (budding yeast), UniProt P29295 1-494, looked up)
chain: MDLRVGRKFRIGRKIGSGSFGDIYHGTNLISGEEVAIKLESIRSRHPQLDYESRVYRYLSGGVGIPFIRWFGREGEYNAMVIDLLGPSLEDLFNYCHRRFSFKTVIMLALQMFCRIQYIHGRSFIHRDIKPDNFLMGVGRRGSTVHVIDFGLSKKYRDFNTHRHIPYRENKSLTGTARYASVNTHLGIEQSRRDDLESLGYVLIYFCKGSLPWQGLKATTKKQKYDRIMEKKLNVSVETLCSGLPLEFQEYMAYCKNLKFDEKPDYLFLARLFKDLSIKLEYHNDHLFDWTMLRYTKAMVEKQRDLLIEKGDLNANSNAASASNSTDNKSETFNKIKLLAMKKFPTHFHYYKNEDKHNPSPEEIKQQTILNNNAASSLPEELLNALDKGMENLRQQQPQQQVQSSQPQPQPQQLQQQPNGQRPNYYPEPLLQQQQRDSQEQQQQVPMATTRATQYPPQINSNNFNTNQASVPPQMRSNPQQPPQDKPAGQSIWL
notes: cloned into pFastBacHT A with a TEV cleavage site after the tag; also called FL Hrr25; Hrr25 WT; source: Trichoplusia ni High Five cells, purified (NiNTA, gel filtration)
B2: full-length (FL) yeast Hrr25, autophosphorylated (enzyme, Saccharomyces cerevisiae (budding yeast), UniProt P29295 1-494, looked up)
chain: B1 chain
modifications: autophosphorylation sites mapped by MS: phospho-Thr27, Ser31, Ser143, Thr144, Ser181, Ser191, Ser198, Ser438, Thr449, Thr453, Ser461, Ser470, Ser491
notes: Hrr25, casein kinase 1 of Saccharomyces cerevisiae, full length, after autophosphorylation with ATP; also called pHrr25; autophosphorylated FL kinase; source: Trichoplusia ni High Five cells, purified (NiNTA, gel filtration); incubated with 1 mM ATP for 1 h at 30°C
B3: GST-tagged Sit4 (enzyme, Saccharomyces cerevisiae (budding yeast), UniProt P20604 1-311, looked up)
chain: MVSRGPDEWLETIKKCQALTENEMKQLCEMVKELLMEESNIQPVQTPVTVCGDIHGQFHDLLELFRTAGGFPDDINYIFLGDYVDRGYYSLETFTLLMCLKVKYPAKITLVRGNHESRQITQVYGFYEECLNKYGSTTVWKYCCQVFDFLTLAAIIDGKILCVHGGLSPEIRMLDQIRVLSRAQEVPHEGGFSDLLWSDPDNVEAWQVSPRGAGWLFGSKVAREFNHVNGLNLIARAHQLVMEGFKYHFPEKDVVTVWSAPNYCYRCGNVASVMKVDEDLEPTFKIFSAVPDDYIRESTANHNNQRAGYFL
notes: Sit4, phosphatase of Saccharomyces cerevisiae, expressed from the pETM30 vector; also called GST-Sit4; Sit4 phosphatase
B4: Hrr25 1-394, autophosphorylated (domain or fragment, Saccharomyces cerevisiae (budding yeast), UniProt P29295 1-394, looked up)
chain: T2 sequence (looked up)
modifications: autophosphorylation sites mapped by MS: the sites detected in full length Hrr25 (Thr27, Ser31, Ser143, Thr144, Ser181, Ser191, Ser198) and in addition Ser41, Ser44, Ser60, Ser153, Thr161, Ser236, Thr239, Ser242, Tyr266, Ser317, Thr326, Ser330, Thr346, Ser376
notes: source: E. coli pRARE cells, purified (NiNTA, gel filtration); incubated with 1 mM ATP for 1 h at 30°C

Test in all cases: pull-down; 20 μg GST-tagged bait mixed with equimolar Hrr25 variant, GST Sepharose 4B, 1 h at 4°C; 20 mM Tris pH 7.5, 150 mM NaCl, 0.5% Tween 20, 2 mM DTT, 2 mM MgCl2; three washes; SDS-PAGE and WB with Hrr25-specific antibodies
Common to all, as to details: both partners purified

One assay deals with T1, FL GST-Elp1.
Assay [1] has as its target T2, Hrr25 1-394, nonphosphorylated.
Assay [2] deals with B1.
The target in a further assay is T3, GST-Elp1 1-734.

As to B1, the binding result with FL GST-Elp1 is “binds”.
Same read-out and setting: to B2 belongs “binds”.
With B3, the binding result in assay [1] and in assay [2] was “binds” in each case.
With B4, the binding result with GST-Elp1 1-734 is given as “binds”.
